Laboratory results reported in the DeepSol protein solubility set.

Assay: soluble on expression in E. coli; label from the status in PepcDB or PDB records

Sequence | soluble on expression in E. coli
DAQNYFQATEIRTMIALLQLIDNPYQDIPLAAVLRSPIVGLKENELVLIRLANKETSYYEAFLTFNQKMEPTMEEAVVQEKTIRFAESLEKWREQARRNQISNLLWTIYRETAYLDYVGGLPVGKQRQANLYALVDRAAAYEKTTFRGLFQFVRFIEKMQEKDKDLAEPVVLSEENAVRV | not soluble
DDSLGEAVTTRAEALTIPAVLRARNLLSTTVARTPLVCDGTLPPFVPVAAPPGAATMQTPFHRMLATADDLLFNGVACWALDRDESGTCIGAIHIPLDTWQIEENTVRVNGKAVDPMEVCIFVGIHGGLLTHASETFTDARNLVRAAARVAQNPAALIELRQTNNAQLSPDDVDRIINGYVAARRGRNSGVGFSSSGLEVHEHEMAKENLLIEGRNAAAVDVARAMNVPAAFIDATVGGTSLSYQNAASRMIELVTFGVEPLMSAIEARLNQPDMHADHLANPLKFDPAALLDAIPTTPTIGAQPHGENS | soluble
DEAMLKIEQQEVVKNLPVGSKLVQLKYAGHSTDEPLLNQIYKEFEVTANILYGNIEILDGIPVGEMVVILSGDEEKLRQACQAITDSQVQLTLLKEGG | not soluble
DEIIDGEDELEQDDPFEGEDIDPESIQEPEASYDSSSSPSGASNAEDDWQDEHRVRKFHINGVTVKAIAERVQYYDADGKLVTESFKDYTRKTMAKQFTSMDDFVKRWQDADKKQAIIDELAEEGIIWEALELEVGKDLDPFDMICHVVYDQPALTRKERADNVKKRNYFTKYGETAQQVLNNLLDKYADEGVQEIENIHVLKVKPFDEMGRPAEIVKKCFGGKEQYLEAISELEAEIY | not soluble
DGMTKLTFGGHPFLLGFEQLERLVERTAKTASEGYPPFNIEAVAENAYRITLAVAGFREDDIAITVEDRQLVVRGRQAEDPAERVFLHRGIASRAFQRSFVLADGVEVAGATMEHGLLHIDLHRQVPQAVVQTIPIGRNR | not soluble
DGTADKTKGEVSNDKVSTDEKHVVSLDPNDQSKGKGVVIDNVANGDISATSTDAINGSQLYAVAKGVTNLAGQVNNLEGKVNKVGKRADAGTASALAASQLPQATMPGKSMVAIAGSSYQGQNGLAIGVSRISDNGKVIIRLSGTTNSQGKTGVAAGVGYQW | soluble
DGTCVNTNSQITANSQCVKSTATNCYIDNSQLVDTSICTRSQYSDANVKKSVTTDCNIDKSQVYLTTCTGSQYNGIYIRSSTTTGTSISGPGCSISTCTITRGVATPAAACKISGCSLSAM | soluble
DHDFKYEVSANLSTVRNRVTSLGFGTDSYISGAYITNVGEEIGKFYGWVYDGIARTQADLDNHATQEGAQIGDCLYKDVSGPDGKPDGKVDANDQVVLGSGMPKINFGLNARFEYKRFDLSIATFGALNYHVSDDIHNSLNSCYGWGNKDVAMLDANRFSEDGSTYLSSVPRTYVTNSASLAWNDLFSDRKIQNAAYWKIANIELGYNFPNEWFGKYVSDVRFYVSAQNLHTFTGYKGYNVDYAGGTFTPGYNFCSYPTARTFMCGVHFTF | not soluble
DHVLLITGGTRGIGLLCARHFAECYGVKKLVLTGREQLPPREEWARFKTSNTSLAEKIQAVRELEAKGVQVEMLSLTLSDDAQVEQTLQHIKRTLGPIGGVIHCAGLTDMDTLAFIRKTSDDIQRVLEPKVSGLTTLYRHVCNEPLQFFVLFSSVSAIIPELSAGQADYAMANSYMDYFAEAHQKHAPIISVQWPNWKETGMGEVTNQAYRDSGLLSITNSEGLRFLDQIVSKKFGPVVLPAMANQTNWEPELLMK | soluble
DIECPTCGRPMGIRTASTGVFLGCSGYALPPKERCKTTINLGDEEGIINVLEEDVETAALRAKKRCPICETAMDAYLIDDKRKMHVCGNNPNCEGYVVEYGEFKVKGYDGPVVECDKCGSDMVLKNGRFGKYMDCTSETCKNTRKILK | not soluble
DILVFTPRKSDAGISVILYPGAFVDALSYAPLANKLASSGYKTYIAEMPLNLAVFGKNRAADIIDEAPDEKFVIGGHSLGGVMSSRFAHENESEIEGVFFLASYPDKKGSLKNASFPALSITGTKDDVLNKDAYDKNKKYLPKDTTFVSIEGGNHAQFGSYGAQHGDGKATISEAEQTDQVSNALIAWLNTSVKNQER | soluble
DIQMTQSPSSLSASVGDRVTITCKASQDIKSFLSWYQQKPEKAPKSLIYYATSLADGVPSRFSGSGSGTDYTLTISSLQPEDFATYYCLQHGESPYTFGGGTKVEIKRTVAAPSVFIFPPSDEQLKSGTASVVCLLNNFYPREAKVQWKVDNALQSGNSQESVTEQDSKDSTYSLSSTLTLSKADYEKHKVYACEVTHQGLSSPVTKSFNRGECT | soluble
DIQMTQTTSSLSASLGDRVTISCSASQDISSYLNWYQQKPEGTVKLLIYYTSSLHSGVPSAFSGSGSGTDYSLTISNLEPEDFATYYCQQYSKFPWTFGGGTKLEIKRADAAPTVSIFPPSSEQLTSGGASVVCFLNNFYPKDINVAWAIDGSAAANGVLNSWTDQDSKDSTYSMSSTLTLTADAYEAANSYTCAATHKTSTSPIVKSFNANEC | soluble
DITVYNGQHKEAAQAVADAFTRATGIKVKLNSAKGDQLAGQIKEEGSRSPADVFYSEQIPALATLSAANLLEPLPASTINETRGKGVPVAAKKDWVALSGRSRVVVYDTRKLSEKDLEKSVLNYATPKWKNRIGYVPTSGAFLEQIVAIVKLKGEAAALKWLKGLKEYGKPYAKNSVALQAVENGEVDAALINNYYWHAFAREKGVQNVHTRLNFVRHRDPGALVTYSGAAVLKSSQNKDEAKKFVAFLAGKEGQRALTAVRAEYPLNPHVVSTFNLEPIAKLEAPQVSATTVSEKEHATRLLEQAGMK | soluble
DKDNPKGLPMLSVDEPTLTMDFMVNTSPLAGTEGKFVTSRQIRDRLQKELLTNVALRVEDTADADVFRVSGRGELHLTILLENMRREGYELAVGKPRVVYRDIDGQKCEPYENLTVDVPDDNQGAVMEELGRRRGELTNMESDGNGRTRLEYHIPARGLIGFQGEFMTLTRGVGLMSHVFDDYAPVKPDMPGRHNGVLVSQEQGEAVAYALWNLEDRGRMFVSPNDKIYEGMIIGIHSRDNDLVVNPLKGKKLTNIRASGTDEAVRLTTPIKLTLEGAVEFIDDDELVEITPQSIRLRKRYLSELERRRHFKKLD | not soluble
DLKILDPIWTTAYITRNHGYMVYDTLFSLDAQGNIQPQMVDTVTTSEDGLMVTMTLRDGLVWHDGAPVTAADCVASINRWGSKDAMGQKMMSFVESLEATDDKTITFKLSTPTGLVTLALAKPSSNVPFMMPERVASTPSSEQIADYTGSGPFVFRQ | not soluble
DLTGKSIVGYRISGGLDIPIGYGLYVNPSLAFHSKGMKTNLEGVALGALGLNSSLKVKTHYIEIPVHLGYRLSLLNLVSVAVQAGPYFSYAIKGDGTVVRKDGQETTFDIYKDGLKEMINAKRFDVGLGAAAMVGYSNFYLLIGADFGLINTVKDIKPETKNLEATLKNTSFHVGLGIRL | not soluble
DNPLESPPPEIVKQGKEAVRQYFQSIEEARSKGEALVHLQEIKVHLIGDGMAGKTSLLKQLIGETFDPKESQTHGLNVVTKQAPNIKGLENDDELKECLFHFWDFGGQEIMHASHQFFMTRSSVYMLLLDSRTDSNKHYWLRHIEKYGGKSPVIVVMNKIDENPSYNIEQKKINERFPAIENRFHRISCKNGDGVESIAKSLKSAVLHPDSIYGTPLAPSWIKVKEKLVEATTAQRYLNRTEVEKICNDSGITDPGERKTLLGYLNNLGIVLYFEALDLSEIYVLDPHWVTIGVYRIINSSKTKNGHLNTSALGYILNEEQIRCDEYDPAKNNKFTYTLLEQRYLLDIMKQFELCYDEGKGLFIIPSNLPTQIDNEPEITEGEPLRFIMKYDYLPSTIIPRLMIAMQHQILDRMQWRYGMVLKSQDHEGALAKVVAETKDSTITIAIQGEPRCKREYLSIIWYEIKKINANFTNLDVKEFIPLPGHPDELVEYKELLGLEKMGRDRYVSGKLEKVFSVSKMLDSVISKEERNKER | soluble
DPRLARLLGLHTQSRSAIVQALWQYVKTNRLQDSHDKEYINGDKYFQQIFDCPRLKFSEIPQRLTALLLP | soluble
DRLGPHRAAMMASLNDAVKAASQHHQAEAFGQGDMFGVLTDAPEEVENKYTQVPPWPEKVWLEGERETLGLYLTGHPINAYLKELNKYTSCRLKDATPTRRDQ | not soluble
DVDEVLRLCAEGLHDVLGYERVNILMADTARTSLSFVAAVGTADFNPAGVVLPLDQRGGVITKCFTDRQVYMIDDVSAYPTDFRLQSPYDAIRALRSKSFVICPIVVKGEAIGVFAVDNRSSR | not soluble
DVGRVLWLAEDITQRKRRREKQALIERVFEVSPVGIVVVERSGRISLANDRAEELLGLEREKITRRRYDQPEWNIYYKDGTEIPDSEHPVTQVLESGEPVFGFEHWIELEDGSERWLSSNAAPILGDDGTVERVVVGLDD | not soluble
DYRPGGFHPAFKGEPYKDARYILVRKLGWGHFSTVWLAKDMVNNTHVAMKIVRGDKVYTEAAEDEIKLLQRVNDADNTKEDSMGANHILKLLDHFNHKGPNGVHVVMVFEVLGENLLALIKKYEHRGIPLIYVKQISKQLLLGLDYMHRRCGIIHTDIKPENVLMEIVDSPENLIQIKIADLGNACWYDEHYTNSIQTREYRSPEVLLGAPWGCGADIWSTACLIFELITGDFLFEPDEGHSYTKDDDHIAQIIELLGELPSYLLRNGKYTRTFFNSRGLLRNISKLKFWPLEDVLTEKYKFSKDEAKEISDFLSPMLQLDPRKRADAGGLVNHPWLKDTLGMEEIRVPDRELYGSGSDIPGWFEEVRDHKRH | soluble
EAEAISCGSPPPILNGRISYYSTPIAVGTVIRYSCSGTFRLIGEKSLLCITKDKVDGTWDKPAPKCQYFNKYSSCPEPIVPGGYKIRGSTPYRHGDSVTFACKTNFSMNGNKSVWCQANNMWGPTRLPTCVSVFPLEQKLIS | soluble
EAEEDGDLQCLCVKTTSQVRPRHITSLEVIKAGPHCPTAQLIATLKNGRKICLDLQAPLYKKIIKKLLES | soluble
EDPSLDRPFISEGTTLKDLIYDMTTSGSGSGLPLLVQRTIARTIVLQESIGKGRFGEVWRGKWRGEEVAVKIFSSREERSWFREAEIYQTVMLRHENILGFIAADNKDNGTWTQLWLVSDYHEHGSLFDYLNRYTVTVEGMIKLALSTASGLAHLHMEIVGTQGKPAIAHRDLKSKNILVKKNGTCCIADLGLAVRHDSATDTIDIAPNHRVGTKRYMAPEVLDDSINMKHFESFKRADIYAMGLVFWEIARRCSIGGIHEDYQLPYYDLVPSDPSVEEMRKVVCEQKLRPNIPNRWQSCEALRVMAKIMRECWYANGAARLTALRIKKTLSQLSQQEGIKM | soluble
EDWNEIDPIKKKDLHHSNGEEKAQSMETLPPGKVRWPDFNQEAYVGGTMVRSGQDPYARNKFNQVESDKLRMDRAIPDTRHD | soluble
EFSLSTLLEMTVGLASGANNEERFHRLLDAVRKAVICDCVVLMSLHNDTLTPLAMQGLTRDTLGRRFVVSEHPRLAQICSADLPVRFAADCPLPDPFDGLLLDSEDDLPMHSCMGLPLHFGEQLLGILTLDSLKPDAFDHLSPRSLEILAAIAAATLKMTLTFSELENQAKQTQLRLEELNQEAWSRDSVE | not soluble
EFSMEDLIPLVNRLQDAFSAIGQNADLDLPQIAVVGGQSAGKSSVLENFVGRDFLPRGSGIVTRRPLVLQLVNATTEYAEFLHCKGKKFTDFEEVRLEIEAETDRVTGTNKGISPVPINLRVYSPHVLNLTLVDLPGMTKVPVGDQPPDIEFQIRDMLMQFVTKENCLILAVSPANSDLANSDALKVAKEVDPQGQRTIGVITKLDLMDEGTDARDVLENKLLPLRRGYIGVVNRSQKDIDGKKDITAALAAERKFFLSHPSYRHLADRMGTPYLQKVLNQQLTNHIRDTLPGLRNKLQSQLLSIEKEVEEYKNFRPDKHGTDSRVDEMLRMYHALKEALSIIGNIN | soluble
